Laboratory results taken from US20220185844A1, “PEPTIDE-DERIVED THERAPEUTICS TARGETING SET8 FOR THE TREATMENT OF CANCER” (NUVOBIO CORPORATION, priority 2019, published 2022).
Several values for one entry are separate records, joined by “and”; a condition that tells them apart may be missing. Equal entries are not always repeated. Where a SMILES comes first, the peptide text is derived from it. Where no end group is shown, it is not given here. [ ]: non-standard residue; d: D form. Nle = CCCC[C@H](N)C(=O)O; Ahx = NCCCCCC(=O)O

Assays:
HCT 116 cells [1] = test: Flow cytometry of BrdU incorporation (DNA replication); type: cell-based; conditions: HCT 116, 24 hr, 2 and 5 μM
HCT 116 cells [2] = test: Cell viability assay (Resazurin reduction); type: cell-based
Protocol: Cell viability was measured using the Resazurin reduction assay which indirectly quantifies living cells through the metabolically active reduction of resazurin to fluorescent resorufin. This assay allows to maintain cells viability and, therefore, to monitor cell growth with time. Exponentially growing HCT 116 cells were seeded into 96-well plates at the density of 2.0×10^4 cells/mL and incubated overnight. The media was replaced with fresh media prior to inhibitor treatment. Cells were treated with 10 μM of inhibitor peptide for 24 hr. All the inhibitors were diluted in the cell culture media (DMEM−/−) from 5 mM stock. All the treated cells were compared to the control (no treatment with equivalent quantity of DMSO) which were considered as 100% viable. One set of wells also prepared with medium only for background subtracting and instrument gain adjustment. The experiments were carried out in triplicate and expressed as mean+−SD. A 10% resazurin solution (0.15 mg/ml stock dissolved in PBS, filter sterilized and stored protected from light at 4° C.) was then added to each well and incubated for 2 hr. The fluorescence was recorded using a multiwell plate reader (Perkin Elmer) at Ex. 560 nm and Em. 610 nm.
Briefly cells were treated with different concentrations of inhibitor for 24 hr ranging from […]. The working dilutions of all the inhibitors were prepared in DMEM−/− media. […]

[3] = tested on: H4K20 mono-methylation in HCT 116 cells; test: Histone H4K20 mono-methylation western blot in treated cells; type: cell-based; conditions: HCT 116, 24 hr post dosing, 0-10 nM
Protocol: The topmost inhibitor, KBL9-TAT, from all the above experiments were tested for histone methylation status in HCT 116 cells. 3×10^6 cells were plated in 10 cm dish and incubated overnight. Cells were then treated with the inhibitors at various concentrations (0, 0.5, 1, 2, 5, 10 nM). Cells (5×10^6 cells/mL), 24 hr of post dosing, were collected in 15 mL falcon tube and centrifuged at 300×g for 10 min. The supernatant was discarded and the cells are washed with iced cold PBS. The cell pellet is flash-frozen in liquid nitrogen and stored at −80° C. Histone isolation is done using standard protocol. To summarize, cells were re-suspended in 1 mL hypotonic lysis buffer (10 mM Tris-HCl pH 8, 1 mM KCl, 1.5 mM MgCl2 and 1 mM DTT) containing protease inhibitor. The cells were transferred to 1.5 mL tube and incubated for 30 min on rotor at 4° C. to promote hypotonic swelling and lysis. The intact nuclei are collected by centrifugation at 10,000×g for 10 min in a cooled tabletop centrifuge. […]
For western blot, of total of […] of histones were separated on 15% SDS-PAGE and transferred overnight at 15V on PVDF membrane. […] Histone proteins were detected by Supersignal™ West Pico PLUS Chemiluminescent substrate (ThermoFisher Scientific) using the Chemidoc XRS+imaging system (BioRad).

HCT 116 cells [4] = test: Chemosensitivity to doxorubicin (Resazurin reduction); type: cell-based; conditions: HCT 116 pre-treated with 2 uM for 24 hrs, dox 16 hrs, normalized to TAT-alone
Protocol: Inhibitor-induced sensitivity of HCT 116 cells to a chemotherapeutic agent, namely doxorubicin (dox), was measured using the Resazurin reduction assay. This assay allows to maintain cells viability and, therefore, to monitor cell growth with time. Exponentially growing HCT 116 cells were seeded into 96-well plates at the density of 2.0×10^4 cells/mL and incubated overnight. The media was replaced with fresh media prior to inhibitor treatment. Cells were pre-treated with 2 μM of inhibitor peptide for 24 hr. Peptide was diluted in the cell culture media (DMEM−/−) from 5 mM stock. All the treated cells were compared to the control (TAT peptide alone with equivalent quantity of DMSO) which were considered as 100% viable. One set of wells also prepared with medium only for background subtracting and instrument gain adjustment. Following 24 hr peptide treatment, dilutions of dox were added to cells (0, 0.001, 0.002, 0.01, 0.02, 0.1, 0.2, 1, 2 uM) and incubated for 16 hrs. The experiments were carried out in quadruplicate and expressed as mean+−SD. A 10% resazurin solution (0.15 mg/ml stock dissolved in PBS, filter sterilized and stored protected from light at 4° C.) was then added to each well and incubated for 2 hr. The fluorescence was recorded using a multiwell plate reader (Perkin Elmer) at Ex. 560 nm and Em. 610 nm.

Set8 = target: T1, Set8 (Homo sapiens, UniProt Q9NQR1); test: In vitro lysine methyltransferase (KMT) activity inhibition assay (Methyltransferase-Glo); type: biochemical
T1 construct: made in house; host or cells: Escherichia coli BL21 (DE3) RP
T1 sequence (Q9NQR1 191-352 isoform Q9NQR1-2): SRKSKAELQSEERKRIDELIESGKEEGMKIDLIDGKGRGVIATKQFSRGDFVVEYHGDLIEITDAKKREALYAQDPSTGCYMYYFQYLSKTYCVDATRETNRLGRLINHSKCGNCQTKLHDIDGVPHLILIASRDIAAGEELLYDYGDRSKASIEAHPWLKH

[5] = target: T2, Recombinant Set8-His6x, pHIS2 Set8(191-352) (Homo sapiens (Human), UniProt Q9NQR1 191-352); test: cell-based or functional assay
T2 sequence: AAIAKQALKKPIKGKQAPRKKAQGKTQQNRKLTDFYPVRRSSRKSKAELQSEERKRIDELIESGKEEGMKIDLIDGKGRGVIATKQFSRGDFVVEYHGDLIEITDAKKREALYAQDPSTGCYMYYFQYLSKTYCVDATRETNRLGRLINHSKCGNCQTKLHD

[6] = target: T2, Recombinant Set8-His6x, pHIS2 …; test: fluorescent polarization, fluorescein-labeled peptide with serially diluted recombinant Set8
Protocol: Recombinant Set8 protein was serially diluted in a 384-well plate, followed by the addition of fluorescein-labeled inhibitor peptide in PBS buffer. The mixtures were incubated in the dark for 30 min prior to fluorescent polarization measurements at room temperature on an EnVision Multilabel Plate Reader (PerkinElmer) with the excitation set at 480 nm and emission at 535 nm. Binding curves were generated by fitting the binding data to a hyperbolic nonlinear regression model using Prism 3.0 (GraphPad software, Inc., San Diego, Calif.), which also produced the corresponding dissociation constants (Kd).

[7] = target: T2, Recombinant Set8-His6x, pHIS2 …; test: DSF thermal shift, 125 µM peptide with 20 µM Set8, SYPRO Orange; DMSO control 71.5 ± 1.1
Protocol: Thermal unfolding of target protein was monitored with inhibitor peptide using DSF. Optimal conditions were achieved using buffer containing 150 mM KH₂PO₄ (pH 7.5), 150 mM NaCl, 10 mM MgCl₂. To assess inhibitor-bound target protein (Set8), 20 μL/well (triplicate) reactions are set up into a Low 96-well Clear Multiplate PCR Plate (Bio-Rad). […] Sypro Orange™ at 5× (diluted in the above binding buffer from a stock concentration of 5000×) then added into the enzyme-peptide mixtures. The plate was covered with Microseal ‘B’ Film (Bio-Rad) and was equilibrated at 25° C. for 5 min. Experiments were conducted on a BioRad C1000 Thermal Cycler with CFX96 Real Time system. Heating was conducted using gradients from 25 to 95° C. (increasing 1° C. per minute).

| Molecule | Tm (° C.) [7] [° C.] | further results |
| --- | --- | --- |
| C[C@@H](O)[C@H](N)C(=O)N[C@@H](Cc1c[nH]cn1)C(=O)N[C@@H](Cc1c[nH]cn1)C(=O)N[C@@H](Cc1c[nH]cn1)C(=O)N[C@@H](CCCCN)C(=O)N[C@@H](Cc1c[nH]cn1)C(=O)N1CCC[C@H]1C(=O)NCC(=O)NCC(=O)NCCCCCC(=O)NCC(=O)N[C@@H](CCCNC(=N)N)C(=O)N[C@@H](CCCCN)C(=O)N[C@@H](CCCCN)C(=O)N[C@@H](CCCNC(=N)N)C(=O)N[C@@H](CCCNC(=N)N)C(=O)N[C@@H](CCC(N)=O)C(=O)N[C@@H](CCCNC(=N)N)C(=O)N[C@@H](CCCNC(=N)N)C(=O)N[C@@H](CCCNC(=N)N)C(=O)N1CCC[C@H]1C(=O)N1CCC[C@H]1C(=O)N[C@@H](CCC(N)=O)C(=O)O [KBL9-TAT, THHHKHPGG{6-aminohexanoic acid}GRKKRRQRRRPPQ] (H-THHHKHPGG[Ahx]GRKKRRQRRRPPQ-OH; N-terminus and C-terminus assumed) | – | BrdU incorporation (HCT 116 cells [1]): decreased BrdU incorporation in a dose-responsive manner; IC50 (HCT 116 cells [2]; 24 hr dose response 1 nM to 20 nM, tested in HCT 116 and HEK 293 cells, read-out: IC50 for loss of cell viability): ~20 nM; loss of cell viability (HCT 116 cells [2]; HCT 116, 10 μM peptide, 24 hr, DMSO control = 100% viable): up to 80%; concentration after which H4K20 histone lysine methylation decreased [3]: at least 2 nM; increase of sensitivity to doxorubicin treatment (HCT 116 cells [4]): 360% |
| THHHKHPGG [KBL9] | – | inhibition of Set8 methyltransferase activity (H4K20 methylation) in dose-response (Set8; 50 nM Set8, 10 μM H4K20 peptide, 10 μM SAM): complete inhibition; in vitro specificity among panel of related methyltransferases (Set8; panel of recombinant Set6, Set7, Set8 enzymes): in vitro specificity towards the inhibition of Set8 activity |
| THHHKHPGG[Ahx]GRKKRRQRRRPPQ [KBL9-TAT] | – | IC50, loss of cell viability (resazurin, 24 hr; HCT 116 and HEK 293 cells) [5]: ~20 nM |
| THHHKHPGG (also: fluorescein label, position not given here, also called EP18) [fluorescein-labeled KBL9] | – | Kd [6]: 33.5 nM and 33.3 nM |
| THHHKHPHK (also called EP 6) [KBL2] | 85.8 | – |
| THHHKHPGR (also called EP 21) [KBL4] | 85 | – |
| THHHKHPGA (also called EP 22) [KBL6] | 84.8 | – |
| THHHKHPGQ (also called EP 19) [KBL8] | 84.5 | – |
| SHHHKHPHG (also called EP 24) [KBL10] | 82.8 | – |
| THHHKHPEQ (also called EP 7) [KBL13] | 77.6 | – |
| THHHKHPHQ (also called EP 8) [KBL15] | 75.5 | – |
| THHH[Nle]HPGG (also called EP 43) [KBL3] | 85.6 | – |
| THHH[Nle]HPHQ (also called EP 33) [KBL1] | 86.5 | – |
| THHH[Nle]HPGA (also called EP 47) [KBL5] | 85 | – |
| SHHH[Nle]HPGT (also called EP 45) [KBL7] | 84.8 | – |
| THHH[Nle]HPGE (also called EP 48) [KBL11] | 78.5 | – |
| SHHH[Nle]HPHG (also called EP 49) [KBL12] | 78.3 | – |
| THHH[Nle]HPEQ (also called EP 32) [KBL14] | 81.5 | – |
| THHHKHPGG (also called EP 18; EP18) [KBL9] | 83.5 | – |
